These results are taken from PMC2132719.

The assay has as its target NLS-HSA (SV-40 large T antigen NLS peptide coupled to human serum albumin) (human | SV-40) (UniProt P02768). Nature of the assay: pull-down.

Some results are limits rather than exact numbers.

Take Xenopus Nup62 (natural protein): the percent of the protein in the extract bound is under 1%.
